Measurements published in patent US20260193317A1, “COMBINATION THERAPY WITH ACTRIIB RECEPTOR VARIANTS AND GLP-1 AGONISTS” (35PHARMA Inc., priority 2023, published 2026).

Experiments:
activin A = molecular target: T1, activin A (Homo sapiens, UniProt P08476); test: Small-scale activin A ELISA with CHO supernatants; conditions: 1 μg/mL protein, 30 ng/mL activin A, loss of signal = binding
T1 sequence (P08476 311-426): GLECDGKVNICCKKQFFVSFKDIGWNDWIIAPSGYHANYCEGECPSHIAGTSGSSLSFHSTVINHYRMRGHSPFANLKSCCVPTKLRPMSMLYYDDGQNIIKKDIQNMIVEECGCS
Method: Small-scale testing of ActRIIB-ECD fusion proteins. Additional investigation of a series of exemplary agents was performed using proteins expressed in CHO cells. Briefly, DNA encoding the ActRIIB-ECD-Fc fusion constructs was transfected in cells seeded in 12-well plates in a final volume of 1 ml. After 7 days, the supernatant was harvested, clarified, and the amount of expressed protein in each well was quantified using standard methods. The potency of each agent for inhibition of activin A, BMP-9 and BMP-10 was determined in three separate assays.
The next day, the plate was washed three times with buffer (Biolegend #421601). […] Expressed proteins in the supernatants described above were diluted to 2 μg/mL in assay diluent (0.5% BSA, 0.05% tween-20 in PBS), mixed 1:1 with recombinant human activin A (R&D #338-AC, 60 ng/mL, diluted in assay diluent). Complexes were immediately added to the 96-well plate in technical duplicates and incubated for 1 h at RT (concentration of expressed protein and activin A on the plate were 1 μg/mL and 30 ng/mL, respectively). […] In this assay, a loss of signal indicates binding of the exemplary agent to activin A, which prevents activin A binding to the anti-activin A antibody on the plate. Results are expressed as a % of the signal obtained with wild-type ActRIIB-Fc (P75).

[1] = Single-injection body weight gain in wild-type mice; type: in vivo; conditions: single 25 mg/kg subcutaneous injection, after 4 days, vs vehicle
Method: To investigate the target engagement of exemplary ActRIIB-ECD polypeptide constructs in vivo, mice (n=6/group) were injected with given agents (25 mg/kg, subcutaneous injection), and sacrificed after 4 days to assess body weight gain.

- activin A binding, ELISA signal relative to P75 (activin A): potent activin A binding
Substance: P1229: hActRIIB L33W, 14 aa linker, IgG1-DL Fc; SEQ ID 211
- body weight gain [1]: apparent body weight gain that did not reach statistical significance
